T1: CaAFOR (AOR1) (Clostridium autoethanogenum, UniProt A0ABM5NPY3)
T1 construct: gene CAETHG_0092
T1 sequence (A0ABM5NPY3 1-607): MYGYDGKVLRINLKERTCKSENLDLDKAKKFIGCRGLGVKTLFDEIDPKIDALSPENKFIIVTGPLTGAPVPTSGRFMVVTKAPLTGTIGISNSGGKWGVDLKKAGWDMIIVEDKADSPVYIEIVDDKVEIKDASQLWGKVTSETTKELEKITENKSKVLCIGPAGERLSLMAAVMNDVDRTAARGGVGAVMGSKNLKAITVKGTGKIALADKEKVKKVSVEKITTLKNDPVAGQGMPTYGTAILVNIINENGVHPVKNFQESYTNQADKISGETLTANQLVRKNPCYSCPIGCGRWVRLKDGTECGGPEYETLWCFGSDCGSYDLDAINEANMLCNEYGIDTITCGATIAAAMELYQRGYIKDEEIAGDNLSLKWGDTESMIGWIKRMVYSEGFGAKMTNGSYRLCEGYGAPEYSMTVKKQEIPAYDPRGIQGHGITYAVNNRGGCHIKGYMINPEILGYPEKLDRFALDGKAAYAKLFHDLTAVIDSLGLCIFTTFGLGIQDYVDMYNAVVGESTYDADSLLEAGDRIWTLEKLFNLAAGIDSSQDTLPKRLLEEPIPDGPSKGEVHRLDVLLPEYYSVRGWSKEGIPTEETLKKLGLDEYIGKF


Key:
[1] = molecular target: T1, CaAFOR (AOR1); details: pH 5.5 or 6.5, 37 °C; CO-driven, ferredoxin, CODH/ACS, S. cerevisiae ADH, 0.2 mM NADH; total sodium acetate; apparent
[2] = substrate: CCCC=O; assay: purified protein; assay type: biochemical, Clostridium autoethanogenum; details: pH 8.0 (50 mM Tris-HCl), 37 °C, 5 mM methyl viologen, anaerobic, enzyme reactivated by preincubation with ferredoxin, apparent
[3] = substrate: CC=O; assay: purified protein; assay type: biochemical, Clostridium autoethanogenum; details: pH 8.0 (50 mM Tris-HCl), 37 °C, 5 mM methyl viologen, anaerobic, enzyme reactivated by preincubation with ferredoxin, apparent
[4] = substrate: CCC=O; assay: purified protein; assay type: biochemical, Clostridium autoethanogenum; details: pH 8.0 (50 mM Tris-HCl), 37 °C, 5 mM methyl viologen, anaerobic, enzyme reactivated by preincubation with ferredoxin, apparent
[5] = substrate: CC(=O)O; assay: purified protein; details: pH 5.5, 37 °C, CO-driven, ferredoxin, CODH/ACS, S. cerevisiae ADH, 0.2 mM NADH, concentration of protonated acid calculated from total acetate with pKa 4.76, apparent, estimated

| Molecule | kM^app [1] | Km [2] | kcat [2] | Km [3] | kcat [3] | Km [4] | kcat [4] | Km [5] |
| --- | --- | --- | --- | --- | --- | --- | --- | --- |
| CC(=O)O [acetate] | the high kM^app of CaAFOR for acetate |  |  |  |  |  |  |  |
| CaAFOR (AOR1) (Clostridium autoethanogenum DSM 10061) (protein, native anaerobic purification from CO-grown cells; full length, no tag; monomer, expected mass 66,335 Da; holds [4Fe-4S] and tungstopterin) MYGYDGKVLRINLKERTCKSENLDLDKAKKFIGCRGLGVKTLFDEIDPKIDALSPENKFIIVTGPLTGAPVPTSGRFMVVTKAPLTGTIGISNSGGKWGVDLKKAGWDMIIVEDKADSPVYIEIVDDKVEIKDASQLWGKVTSETTKELEKITENKSKVLCIGPAGERLSLMAAVMNDVDRTAARGGVGAVMGSKNLKAITVKGTGKIALADKEKVKKVSVEKITTLKNDPVAGQGMPTYGTAILVNIINENGVHPVKNFQESYTNQADKISGETLTANQLVRKNPCYSCPIGCGRWVRLKDGTECGGPEYETLWCFGSDCGSYDLDAINEANMLCNEYGIDTITCGATIAAAMELYQRGYIKDEEIAGDNLSLKWGDTESMIGWIKRMVYSEGFGAKMTNGSYRLCEGYGAPEYSMTVKKQEIPAYDPRGIQGHGITYAVNNRGGCHIKGYMINPEILGYPEKLDRFALDGKAAYAKLFHDLTAVIDSLGLCIFTTFGLGIQDYVDMYNAVVGESTYDADSLLEAGDRIWTLEKLFNLAAGIDSSQDTLPKRLLEEPIPDGPSKGEVHRLDVLLPEYYSVRGWSKEGIPTEETLKKLGLDEYIGKF |  | 53.47 ± 19.45 µM | 4.27 ± 0.48 s⁻¹ | 54.40 ± 12.55 µM | 4.42 ± 0.31 s⁻¹ | 165.51 ± 50.50 µM | 10.35 ± 1.06 s⁻¹ | 1630 µM |

Reference: publication PMC12727526, “Carbon-monoxide-driven bioethanol production operates through a tungsten-dependent catalyst” (Nature Chemical Biology, 2025)
